Data from patent publication US20250242017A1, “HISTAMINE AND HRH1 SIGNALING ACTIVITY AS BIOMARKERS AND ASSOCIATED METHODS” (Board of Regents, The University of Texas System, priority 2022, published 2025).

Tests used:
[1] = test system: VISTA+ BMDMs; assay: VISTA membrane expression on macrophages after Ca2+ flux modulation; format: cell-based, mouse
Excerpt: (§1) Flow cytometry staining and analysis.

[2] = test system: early-stage breast cancer; assay: Retrospective analysis of medications in stage 0 or 1 breast cancer patients; format: in vivo, human; conditions: poor outcome = recurrence or death; for estimated patient number with poor outcome: based on estimated 2.54% of patients taking the medication; for actual patient number with poor outcome: patients taking the medication
Excerpt: To explore whether some medications have impact on early-stage breast cancer recurrence, we performed a retrospective analysis of the most commonly prescribed medications took by patients with stage 0 or stage 1 breast cancer. Stage 0 and 1 breast cancers are highly treatable early-stage breast cancers and generally have very good prognosis in the first five years. Typically, surgery, radiation, or a combination of the two are the standard treatments. Hormone therapy, depending on the type of cancer cells and additional risk factors, is also an option. To rule out potential impact of the medications on therapies, patients who received treatment other than surgeries were excluded. 1652 patients diagnosed with stage 0 or 1 breast cancer at MDACC between 2016-2021 were enrolled in the study. 29 patients have been diagnosed with cancer recurrence (1.76%) and 3 out of 29 patients were deceased by 2021. Another 13 patients were also deceased, but whether cancer is the cause of their deaths is not clear. Altogether, total 42 patients (2.54%) have poor clinical outcome, including cancer recurrence or death. We first analyzed the 50 most prescribed drugs in USA which include many common drugs such as Aspirin, Simvastatin, and Metformin. About half of the drugs (24) were took by >100 patients based on their electric health record. To cover more medications, we further expanded the drug list by adding the top 20 over-the-counter medicines (OTC) sold on AMAZON website. To explore potential impact of medications on cancer recurrence and patient mortality, we compared the predicated patient numbers with poor clinical outcomes (X-axis) based on the estimated 2.54% (the ratio of total patients with poor outcome to total number of patients) versus the actual patient number with poor outcomes (Y-axis) of each medication (FIG. 15A). Most medications show limited impacts on patients' outcome, including Aspirin (8.5 vs. 8, estimated vs. actual patient number with poor outcome) and Metformin (3.5 vs 4). […] Instead, antihistamine may intercept or delay early-stage breast cancer progression by enhancing immune surveillance.

[3] = test system: melanoma patients; assay: Retrospective Epic SlicerDicer analysis of anti-PD-1/PD-L1-treated melanoma patients; format: in vivo, human; conditions: patients taking the medicine during anti-PD-1/PD-L1 treatment vs those who did not
Protocol: Epic SlicerDicer software analysis. Our retrospective study was conducted on melanoma patients encountered during 2016-2017 at The University of Texas MD Anderson Cancer Center, which draws a diverse range of local, regional, national, and international patients. The study population consisted of all melanoma patients with of International Classification of Diseases (ICD) code C43 (10th version). Anonymized aggregate-level data were collected using the SlicerDicer function within MD Anderson Epic electronic medical records. Institutional Review Board approval was therefore waived. Using the Epic SlicerDicer, we identified 9922 patients with a visit diagnosis, billing diagnosis, or active problem list with malignant skin of melanoma (ICD-10-CM:C43, which includes all subgroups). EPIC SlicerDicer was used to further identify 878 of these patients who received anti-PD-1 antibodies (pembrolizumab, nivolumab, or cemiplimab) or anti-PD-L1 antibodies (durvalumab, atezolizumab, or avelumab) treatment during the study period. […] The estimated patient deaths of each subgroup were calculated based on the patient number of each subgroup and the average patient death rate (39%, based on deceased patients out of total patients analyzed). […] The survival time was calculated as the days between the two dates. […]

[4] = test system: peritoneal macrophages; conditions: histamine 10 mM, vs vehicle-treated
Protocol: Macrophage polarization and stimulation. To polarize macrophages toward an M1-like phenotype, we stimulated PBMC-derived macrophages or BMDMs with IFN-g (20 ng/ml, PeproTech) for 48 hours. To induce an M2-like phenotype, we treated THP-1-derived macrophages or BMDMs with IL-4 (20 ng/mL, PeproTech) for 48 hours. […] To stimulate macrophages with tumor cell-derived conditioned medium (TCM), we cultured BMDMs with complete medium containing 50% TCM (volume).
Flow cytometry staining and analysis. Live single cells were sub-gated by staining with Fixable Viability Dye eFluor 450 (eBioscience) for 15 minutes at 4° C. For blocking of Fc receptors, cells were then pre-incubated with purified anti-CD16/32 antibody (clone 93, BioLegend) for 10 minutes on ice before immunostaining. After one wash with flow cytometry buffer, cells were incubated with appropriate dilutions of various combinations of the following antibodies. […]

[5] = test system: CD8+ T cells; assay: In vitro co-culture of macrophages with T cells; format: cell-based, mouse; conditions: T cells co-cultured with histamine-treated macrophages vs vehicle-treated
Protocol: In vitro co-culture with T cells. Spleens from wild-type C57BL/6 or BALB/c mice were harvested and filtered through a […] cell strainer to generate a single-cell suspension. After red blood cell lysis, splenocytes were counted and plated in complete Roswell Park Memorial Institute 1640 medium supplemented with […] b-mercaptoethanol and 10 mM HEPES onto 12-well plates coated with […] anti-CD3 (clone 145-2C11, BioLegend) and […] anti-CD28 (clone 37N, BioLegend) antibodies. Spleen T cells were activated for 48 hours before co-culture with macrophages. To educate the macrophages, we co-cultured naïve BMDMs with tumor cells at a ratio of 1:1 or with tumor cell-derived conditioned medium for 48 hours. Macrophages were seeded with activated T cells at a ratio of 5:1. After co-culture for another 24 or 48 hours, T cells were collected for flow cytometry analysis.
as §1

[6] = test system: lung cancer, breast cancer, and colon cancer patients; assay: Basket trial of anti-PD-1 treatment, response by pre-treatment plasma histamine (n=70); format: in vivo, human
Excerpt: (§2) Human samples. The untreated breast cancer samples including tumor tissues and blood plasma from TNBC patients who had undergone a mastectomy before therapy, normal breast tissues from women undergoing cosmetic breast surgery, and blood plasma from colon cancer patients and healthy subjects were collected at the First Affiliated Hospital of Chongqing Medical University. The blood plasma from patients with advanced lung (n=48), colon (n=12) and breast (n=10) cancers were collected pre-anti-PD1 treatment (patients were treated with Camrelizumab between Dec. 24, 2019 and Feb. 27, 2021) at the Beijing Friendship Hospital of Capital Medical. Best percentage change in the sum of the diameters for the selected target lesion is defined by Response Evaluation Criteria in Solid Tumors (RECIST version 1.1) on minimum 2 computed tomographic scans before treatment and 1 computed tomographic scan during treatment. The use of pathological specimens, as well as the review of all pertinent patient records, were approved by the Research Ethics Committee of the First Affiliated Hospital of Chongqing Medical University (project approval number 1005367 2017-012) and the Research Ethics Committee of Beijing Friendship Hospital of Capital Medical University (project approval number 2017-P2-141-01), and written informed consent were obtained from each participant and/or their legal representative, as appropriate.
(§3) Enzyme-linked immunosorbent assay (ELISA). The levels of histamine in cell culture supernatant, serum/plasma, and tissues were detected by Histamine ELISA kits (ENZ-KIT140-0001, Enzo; ab213975, Abcam) according to the manufacturer's instructions.

[7] = test system: lung cancer patients; assay: Responses of anti-PD-1-treated lung cancer patients by plasma histamine; format: in vivo, human; conditions: patient count, lung cancer (n = 48)
Excerpt: as §2, §3

[8] = test system: colon cancer patients; assay: Responses of anti-PD-1-treated colon cancer patients by plasma histamine; format: in vivo, human; conditions: patient count, colon cancer (n = 12)
Excerpt: as §2, §3

[9] = test system: breast cancer patients; assay: Responses of anti-PD-1-treated breast cancer patients by plasma histamine; format: in vivo, human; conditions: patient count, breast cancer (n = 10)
Excerpt: as §2, §3

[10] = patients with high levels of plasma histamine (>0.6 ng/mL)
[11] = patients with low levels of plasma histamine (<0.3 ng/mL)
[12] = Histamine Medium (0.3-0.6 ng/ml)
[13] = Histamine Low (<0.3 ng/ml), no patients in group

Molecule: CC(=O)OCOC(=O)CN(CC(=O)OCOC(C)=O)c1ccccc1OCCOc1ccccc1N(CC(=O)OCOC(C)=O)CC(=O)OCOC(C)=O [BAPTA-AM]
- HRH1-mediated membrane VISTA expression ([1]; WT TAMs, BAPTA-AM): reduced HRH1-mediated membrane VISTA expression

Molecule: CC(=O)Oc1ccccc1C(=O)O [aspirin]
- estimated patient number with poor outcome [2]: 8.5
- actual patient number with poor outcome [2]: 8
- death rate [3]: reduced death rate

Molecule: CN(C)C(=N)N=C(N)N [Metformin]
- estimated patient number with poor outcome [2]: 3.5
- actual patient number with poor outcome [2]: 4

Molecule: C[C@H](CCC(=O)O)C[C@H](C)C[C@H](C)C(=O)/C=C(\O)[C@H](C)C[C@H](C)C/C=C/[C@@H](C)[C@@H](O)[C@@H](C)[C@@H](O)C[C@@H]1CC[C@@](C)([C@H]2CC[C@@](C)([C@@H](C)O)O2)O1 [ionomycin]
- cell-surface VISTA expression ([1]; HRH1-/- TAMs, ionomycin): increased cell-surface VISTA expression

Molecule: CC1(C)S[C@@H]2[C@H](NC(=O)[C@H](N)c3ccccc3)C(=O)N2[C@H]1C(=O)O [ampicillin]
- death rate [3]: increased death rate

Molecule: NCCc1c[nH]cn1 [histamine]
- M2-like marker CD206 and M1-like marker MHCII [4]: increased M2-like marker CD206 and reduced M1-like marker MHCII
- T cell activation [5]: significantly suppressed T cell activation

B1: Camrelizumab (antibody, chains of the INN, looked up, V domains shown)
VH: EVQLVESGGGLVQPGGSLRLSCAASGFTFSSYMMSWVRQAPGKGLEWVATISGGGANTYYPDSVKGRFTISRDNAKNSLYLQMNSLRAEDTAVYYCARQLYYFDYWGQGTTVTVSS
VL: DIQMTQSPSSLSASVGDRVTITCLASQTIGTWLTWYQQKPGKAPKLLIYTATSLADGVPSRFSGSGSGTDFTLTISSLQPEDFATYYCQQVYSIPWTFGGGTKVEIK
notes: anti-PD1 treatment of the basket-trial patients (Camrelizumab)
- disease control rate (DCR) [6, 10]: 44%
- overall response rate (ORR) [6, 10]: 16%
- disease control rate (DCR) [6, 11]: 88.3%
- overall response rate (ORR) [6, 11]: 55.6%
- Treatment response CR ([7]; Histamine High (≥0.6 ng/ml)): 0
- Treatment response PD ([7]; Histamine High (≥0.6 ng/ml)): 6
- Treatment response PR ([7]; Histamine High (≥0.6 ng/ml)): 2
- Treatment response SD ([7]; Histamine High (≥0.6 ng/ml)): 3
- Treatment response CR ([7]; Histamine Low (<0.3 ng/ml)): 1
- Treatment response PD ([7]; Histamine Low (<0.3 ng/ml)): 2
- Treatment response PR ([7]; Histamine Low (<0.3 ng/ml)): 9
- Treatment response SD ([7]; Histamine Low (<0.3 ng/ml)): 6
- Treatment response CR [7, 12]: 0
- Treatment response PD [7, 12]: 6
- Treatment response PR [7, 12]: 7
- Treatment response SD [7, 12]: 6
- Treatment response PD ([8]; Histamine High (≥0.6 ng/ml)): 4
- Treatment response PR ([8]; Histamine High (≥0.6 ng/ml)): 2
- Treatment response SD ([8]; Histamine High (≥0.6 ng/ml)): 2
- Treatment response PD [8, 13]: 0
- Treatment response PR [8, 13]: 0
- Treatment response SD [8, 13]: 0
- Treatment response PD [8, 12]: 1
- Treatment response PR [8, 12]: 2
- Treatment response SD [8, 12]: 1
- Treatment response PD ([9]; Histamine High (≥ 0.6 ng/ml)): 4
- Treatment response PR ([9]; Histamine High (≥ 0.6 ng/ml)): 0
- Treatment response SD ([9]; Histamine High (≥ 0.6 ng/ml)): 2
- Treatment response PD [9, 13]: 0
- Treatment response PR [9, 13]: 0
- Treatment response SD [9, 13]: 0
- Treatment response PD [9, 12]: 1
- Treatment response PR [9, 12]: 1
- Treatment response SD [9, 12]: 2
